Experimental data from the DeepSol protein solubility set.

assay: soluble on expression in E. coli; label from the status in PepcDB or PDB records

| Sequence | soluble on expression in E. coli |
| --- | --- |
| MRNICFVACMLFCLTSAVGKTPGNTRYLSIADSILSNVLNLYQTNDGLLTETYPVNPDQKITYLAGGTQQNGTLKASFLWPYSGMMSGCVALYKATGNKKYKKILEKRILPGMEQYWDNSRLPACYQSYPTKYGQHGRYYDDNIWIALDYCDYYQLTHKPASLEKAVALYQYIYSGWSDEIGGGIFWCEQQKEAKHTCSNAPSTVLGVKLYRLTKDAKYLEKAKETYAWTKKHLCDPTDHLYWDNINLKGKVSKEKYAYNSGQMIQAGVLLYEETGDEQYLRDAQQTAAGTDAFFRTKADKKDPTVKVHKDMAWFNVILFRGLKALYKIDKNPAYVNAMVENALHAWENYRDENGLLGRDWSGHNKEQYKWLLDNACLIEFFAEIAAALEHHHHHH | not soluble |
| MGSDKIHHHHHHMNSGIYSALTGNVAAMKRLDVLSNNLANVNTPGFKKDRMTFESMLQTVGAQPRPGGGTDAPVFAETTFFTDYSPGSVKQTGNPFDLAIDGDGFFAVTTADGQRAYTRQGNFRLDSTGRLVTADGAQVAGGVVIAGGKVDINGKGEVLVDGSQVGRLEVVDFPKPYALQKLGGGLFVPADPQATPNPVTGEKVMQGAIEESNVNTVQEMVQLIETNRYFEMCSKVVKAYDDLTGKAANEIGKI | not soluble |
| REVLARDREVLRSVYGILVQAHYRNTPDDLLAMLESPHHRIYALEADGTPVAVADVVLEGPDVEEEARIALERLLYMAGSPGSGVVSWRVSRIAVHEDLQRRGLGSRLLRHVEAQARESGASLVTTMFSRHDVIPFWLKNGFKPFYVSPRYNRVTGEKNVALAKPLDSAGA | not soluble |
| MGSDKIHHHHHHMDTKFSCVGCGGCCTDHHVPLTLLEARQWAADGGNVIVLTEAFLSNGYGVAQNQLTHATRRSTEVNSGSTTAFVAITFAAYNVGRCRNLDEENLCRIYERRPLVCRIYPMEINPHIPLRPETKGCPPESWEQGPDLIVGDTLVDTQLMSLIEQSRQADRDEIAAKQLICQQLGIRTTALKGNGFVAYLPDMNAFAAAIENVANLAGAAPENSDWEFHVAGQHVVDTLQQEGADVTDREPVSYLFIPLQAA | not soluble |
| MSHENQENYDDYNGDHDNKYDQQYDESSRGDDFGGRGRGFNGPPGGAGSFFGVPPAARGRGGPGMAPPGFAGRGRGFATPGMSSGFAPRGRGMPPGRGGYMPPYRGGYGVAPNGGPGAYGGPYNGGPGAYGAQAPGPNPQDQEQRLKRLSGCEEGQELWVETETAEGKKYFYHPVNRNTIWERPQNAKIVTQPELAQLIHRATEEEKNREERMPHGQIPQNPDDAWNEFNAPDGRKYYFNSITQENTWEKPKALIDQENGGGASPEPVQSAAIAEAQAKAQAALAAFMAQQKTSSNGGGGMPLSKAQASGAAAAAAVNAEAAKKKDSTRPISSTPVSGTPWCVVWTGDDKVFFYNPSTKCSVWERPPDTYGREDVDKLVQNPPSPKAEEENNQSKKESESESESDEDGPPKAKKSRAEKKKEALIAAQKKEKERPRQMLQKPVDPAIEAEMQAAKEREKVPLEERLKQFKEMLEEKNVSTSSTFEKELSKIVFDKRYLSLGATERRACFDAFCREKIESEKAERRKRVKEAKEEFQKLLAECELNGRSSYSSFTSKFGKDPRYKAVERNRDREDAFNDFVGELHKKEKDEKRAKKEKLKAAFVKLLEEQTGLTRKSKWSTTKKTLEDEERYIALDSSSTRESLFREFVANLGDETASDIEEEQEREKRLAAQTAIANRQKEVEAELGNQLRERTKESEKQKMGEHEDTYRNLLIDLIKSTENSWHEARRILRKDERYANCDMLDKTRKESLFDDHIKSLERKRREAFFQVLDNHEKITPMMRWRDAKKIIQDEEETFVKIASNSERKVERDFRDWQERRHDHLTDEFKEMLSETKIITHKSKKLMEEGEQHMDILSVLENDKRWVRMTAMSASERDRMLEDHIENLGRKGTPPPPTQQERDRRKQ | soluble |
| MSLGKTSMIHAIVDQYSHCEWVENSMSANENNLIWIDLEMTGLDPERDRIIEIATLVTDANLNILAEGPTIAVHQSDEQLALMDDWNVRTHTASGLVERVKASTMGDREAELATLEFLKQWVPAGKSPICGNSIGQDRRFLFKYMPELEAYFHYRYLDVSTLKELARRWKPEILDGFTKQGTHQAMDDIRESVAELAYYREHFIKLEGGSHHHHHH | soluble |
| SLKQQLIKNGLVLDMKGNHKPQAKDILIEGKWIRDIRPNIEPEVDTEIIDAEGKIVMPGFVDTHRHVWESLLRHIGTDWTLLTYLDNLYYGNLGSMLTPEDSYIANLWGALEAIDAGVTTVLDWSMLETPEHADASIKGLQAAGIRAVFAHGTPGYETYWSRDSEVRHPKDAKRVKKEYFQSDDQLLTMALAIRGPEFSSWEVTLDDIQLARELDAIASMHIGFGTWGPHDRSITRMREAGLLDSDLNLVHVNRIQPHEYEYIAESGASLSVTPEVEMMMGHGYPATGYLHKHRGLVTLGVDVVVATAGDMFAQMKFALQAERAWQNEQRLDRGEMPEQLKMTTNDVLTFATLNGAKALKLDDKIGTLDVGKEADLLLINPSSFNLFPLNHEPVGAVVQSARPENVDSVFIAGRPVKRHGKLLFDDLDGLRNKVLAASEAVFHRQAAKN | not soluble |
| MQVFCFTPKGEVVKLPRGATPIDFAFAIHTRIGMACVGAKVDHMRVPLWTRLKNGQSVEVITAEGQSPQATWLEHHHHHH | not soluble |
| MSLIDIHSHIIPNIDDGSKSLEMSLEMLKRAEESGTKKIIATPHFFKGYWTENYNSVKDKVKELNKLAKENNLNIEIYPGQEVFFNNYILEDFKLGDIGTLGESRYMLIEFPMDKIYFQKAIDEIYELKIKGITPVIAHPERYVDFINNPEEINQFIDEGYLFQLNGGSLTGLFGKEVKKTAELFLENNLYSFIGSDAHSNGNRNTSLKEACEVANSISRGASRRFEANGLALLNNEKIVFQGEGHHHHHH | soluble |
| MKVVELKNVKKIYPDGTIALKGVSLSVEEGEFLGVMGPSGSGKSTLLHLIGGLDKPSEGIVKVFGKEINHLDEDELAEMRKRKIAYVFQFYYLLEDFSVLENLTLIGELAGIKNPKKKALELLDFLRLSHRINHKPYQLSGGEQQRVAIGRALMVEPKLILADEPTGNLDSKEGFRIFELFKELNEKGITFVVATHNDSLKPFFGRIINLRDGEIVTQR | soluble |
| MTGNSFNSMKDFLKQTGGYAVIDGGLATEFERHGADLNDPLWSAKCLVTSPHLIHTVHLDYLEAGADIISSASYQATIQGFEAKGFSREESESLLKKSVEIATEARNSYYDKCGTSSSMDDKILKKRPILVAASVGSYGAYLADGSEYSGIYGDSITLEKLKDFHRRRLQVLAESGADLIAFETIPNKIEAQAFADLLEEGDVKIPGWFSFNSKDGVNVVSGDSIKECISIAENCEKVVAVGINCTPPRFIEGLVLEIEKVTSKPILVYPNSGESYDADRKEWVENTGVGDEDFVSYVEKWMDAGVSLLGGCCRTTPTTIRAIHKRLVNRRSL | soluble |
| MRGSHHHHHHTDPALRAIPQISQAPGVVQLVLNFLQELEQQGFTGDTATSYADRLTMSTDNSIYQLLPDAVVFPRSTADVALIARLAAQERYSSLIFTPRGGGTGTNGQALNQGIIVDMSRHMNRIIEINPEEGWVRVEAGVIKDQLNQYLKPFGYFFAPELSTSNRATLGGMINTDASGQGSLVYGKTSDHVLGVRAVLLGGDILDTQPLPVELAETLGKSNTTIGRIYNTVYQRCRQQRQLIIDNFPKLNRFLTGYDLRHVFNDEMTEFDLTRILTGSEGTLAFITEARLDITRLPKVRRLVNVKYDSFDSALRNAPFMVEARALSVETVDSKVLNLAREDIVWHSVSELITDVPDQEMLGLNIVEFAGDDEALIDERVNALCARLDELIASHQAGVIGWQVCRELAGVERIYAMRKKAVGLLGNAKGAAKPIPFAEDTCVPPEHLADYIAEFRALLDSHGLSYGMFGHVDAGVLHVRPALDMCDPQQEILMKQISDDVVALTAKYGGLLWGEHGKGFRAEYSPAFFGEELFAELRKVKAAFDPHNRLNPGKICPPEGLDAPMMKVDAVKRGTFDRQIPIAVRQQWRGAMECNGNGLCFNFDARSPMCPSMKITQNRIHSPKGRATLVREWLRLLADRGVDPLKLEQELPESGVSLRTLIARTRNSWHANKGEYDFSHEVKEAMSGCLACKACSTQCPIKIDVPEFRSRFLQLYHTRYLRPLRDHLVATVESYAPLMARAPKTFNFFINQPLVRKLSEKHIGMVDLPLLSVPSLQQQMVGHRSANMTLEQLESLNAEQKARTVLVVQDPFTSYYDAQVVADFVRLVEKLGFQPVLLPFSPNGKAQHIKGFLNRFAKTAKKTADFLNRMAKLGMPMVGVDPALVLCYRDEYKLALGEERGEFNVLLANEWLASALESQPVATVSGESWYFFGHCTEVTALPGAPAQWAAIFARFGAKLENVSVGCCGMAGTYGHEAKNHENSLGIYELSWHQAMQRLPRNRCLATGYSCRSQVKRVEGTGVRHPVQALLEIIKGLCGR | soluble |
| MQMDGSKHMGTGAADAPFYLAQGDECDIFTAAYDNNLPVLLKGPTGCGKTRFVAHMAAKLGRPLYTVACHDDLAAADLIGRYLLKGGETVWVDGPLTRAVREGAICYLDEVVEARKDVTVVLHPLTDDRRILPIDRTGEELEAMPGFMLVASYNPGYQNILKTLKPSTRQRFISLEFDFPAPELEARVVSQESGLPLERCKPLIRLAGKLRGLKGQDLEEGVSTRLVVYAATLIAQGMPTERAILAAMVEPLTDDEDIKRGLLDLTTAVFGLEHHHHHH | not soluble |
| MELADVGAAASSQGVHDQVLPTPNASSRVIVHVDLDCFYAQVEMISNPELKDKPLGVQQKYLVVTCNYEARKLGVKKLMNVRDAKEKCPQLVLVNGEDLTRYREMSYKVTELLEEFSPVVERLGFDENFVDLTEMVEKRLQQLQSDELSAVTVSGHVYNNQSINLLDVLHIRLLVGSQIAAEMREAMYNQLGLTGCAGVASNKLLAKLVSGVFKPNQQTVLLPESCQHLIHSLNHIKEIPGIGYKTAKCLEALGINSVRDLQTFSPKILEKELGISVAQRIQKLSFGEDNSPVILSGPPQSFSEEDSFKKCSSEVEAKNKIEELLASLLNRVCQDGRKPHTVRLIIRRYSSEKHYGRESRQCPIPSHVIQKLGTGNYDVMTPMVDILMKLFRNMVNVKMPFHLTLLSVCFCNLKALNTAK | soluble |
| MGSDKIHHHHHHMFERSDETLIAQALKGKKSAWLTLVKRYEKNLYNYALRMVNNPADAMDLMQDIFIALFRNLSKFRGECPFKNWLFKIAHYRCLEYYRRKRPMQSLDDVPEQEDEESVCLEKNLQIQQQSSALLEAMQHLPVKQKLVVELKFFQQCTFEDISQQLGISTNTAKSQLYSALDKLKLHLVDDQIIKVGVEYV | not soluble |
| MSKYKIFVDGAVGTTGLGIFERLRAAKDIELLTLADEQRKDLKARLANVAAADLTLLCLPDTASKQLVLHAPPSAKICDTSTAHRVDPAWVYGFAELSGQFNNIQTATRVAIPGCHATGYIALLRPLIERHYLNADYPFTCHSLTGYSGGGKAMIADYQAPIRDDKFKAPRMYGLTLHHKHLAEMCAFTGSSNPPIFTPIVADYYSGMLVNVPLPLAAFTQEANDGEKISGILADYYREASLINVHYVNDLPTDGMVAANSLAGKDRLDIFVYANQTQVVLSAIFDNLGKGASGAAIQCMNIMLGRDQLADLHI | not soluble |
| MNGIKTGLGITPGEHIISADSALSRNIRQCFCLSCHGRLILQTDAQGAWFEHDLYALSEQQKAACVVLNPEKSHPYIEDMEMFLSPLPVVLEWHCMMCEQFFHGKKFCEACGTGIYCRAVCTKSVYSYQPDLFQDCGGAST | soluble |
| MSLQKITVPTWAEINLDNLRFNLNNIKNLLEEDIKICGVIKADAYGHGAVEVAKLLEKEKVDYLAVARTAEGIELRQNGITLPILNLGYTPDEAFEDSIKNKITMTVYSLETAQKINEIAKSLGEKACVHVKIDSGMTRIGFQPNEESVQEIIELNKLEYIDLEGMFTHFATADEVSKEYTYKQANNYKFMSDKLDEAGVKIAIKHVSNSAAIMDCPDLRLNMVRAGIILYGHYPSDDVFKDRLELRPAMKLKSKIGHIKQVEPGVGISYGLKYTTTGKETIATVPIGYADGFTRIQKNPKVLIKGEVFDVVGRICMDQIMVRIDKDIDIKVGDEVILFGEGEVTAERIAKDLGTINYEVLCMISRRVDRVYMENNELVQINSYLLKEGHHHHHH | soluble |
